Laboratory results from US9290794B2, “Mutant protease biosensors with enhanced detection characteristics” (PROMEGA CORPORATION, priority 2010, dated 2016).

Assays:
Caspase-8 = Caspase-8 biosensors transfected into HeLa cells, induction with TRAIL; assay type: cell-based; conditions: 1 μg/mL TRAIL, 37° C.
Source text: To evaluate whether the mutant thermostable luciferase biosensors of the present invention can be used to detect Caspase-8 activity in cells, biosensors were generated that contained the Caspase-8 cleavage site, LETDG (SEQ ID NO:15). Two different biosensors, TL-CP358-Caspase-8 and TL-CP233-Caspase-8 were used. As controls, the firefly (Photinus pyralis; Ppy) luciferase biosensors FF-CP234-Caspase-8 (M/Ppy residues 234-544/LETDG/Ppy residues 4-230/V), FF-CP359-Caspase-8 (M/Ppy residues 359-544/LETDG/Ppy residues 4-355/V), and TL-CP358-DEVD.
All biosensors were transfected into HeLa cells. Cells were plated at a (10,000/well) into a 96-well tissue culture plate. […]
After overnight incubation, the media was removed from the cells and replaced with CO2 Independent Media (Invitrogen Cat. No. 18045088) with 2 mM Luciferin EF (Promega Cat. No. E6551). Cells were pre-equilibrated with Luciferin EF for 2 hrs in a Varioskan luminometer with bioluminescence readings taken every 20 min. […] The cells were again incubated at 37° C. in a Varioskan luminometer for 500+ min with bioluminescence measured every 20 min.
FIGS. 5 and 7 identify the kinetic profiles of Caspase 8 activation by TRAIL over time at 37° C. […] Fold induction of activation was calculated by dividing the signal of samples with TRAIL over the signals without trail at a given time point. […]

caspase-3 [1] = experiment: CBS-HT (cell-free expressed) immobilized to HaloTag ligand microtiter plate, caspase-3 cleavage; assay type: biochemical
Procedure: For immobilization to a plate (FIG. 18B), a microtiter plate was prepared containing HaloTag® ligand for immobilizing the CBS-HT fusion protein. Briefly, bicarbonate buffer pH 8.5 (100 μL), containing amine-PEG 2000-Cl alkane HaloTag® ligand (0.25 mM (final concentration; PBI 3961 and methoxy-PEG-NH2 (0.75 mM final concentration) were added to wells of a NHS microtiter plate and incubated for 1 hr at room temperature. The wells were then washed 3 times with PBS containing 0.05% Tween-20. After washing, 50 mM ethanolamine was added, and the plates were incubated for 30 min at room temperature and washed again 3 times with PBS containing 0.05% Tween-20. The plate was then stored at 4° C. with PBS containing 0.05% Tween-20 in each well. For the assay, the wells were washed 3 times with 200 μl HPTB. 50 μl CBS-HT cell-free expression reaction (Example XI) was added to the wells, and incubated overnight at 4° C. Following incubation, the plate was washed 3 times with 200 μl PBSI (1×PBS with 0.05% IGEPAL). 100 μL E. coli lysate containing caspase-3 or C(3) lysis buffer (described above) were added and the plate was incubated for 60 min with mixing at room temperature. The wells were then washed with 100 μl PBSI. 100 μL HEPES pH 7.5 and 100 μl Bright-Glo Assay Reagent were added and luminescence was detected as previously described (Table 9).

caspase-3 [2] = experiment: Cell-free (wheat germ) expressed CBS-HT, caspase-3 cleavage reaction, luminescence; assay type: biochemical; conditions: WG(HY), MIN. 5
Procedure: The CBS variant 1A5 was cloned into the vector pFN19K HaloTag® (Promega Cat. No. G1841) to generate a CBS-HaloTag® (CBS-HT) fusion protein (SEQ ID NOs:71 and 72). 20 μl (8 μg) of the CBS-HT vector was added to 30 μl TnT® SP6 High-Yield Wheat Germ Expression System (Promega Cat. No. L3261) and incubated at 25° C. for 90 min.
For the CBS-HT caspase-3 cleavage reaction, one volume of the expression reaction was incubated with an equal volume of either an E. coli lysate containing caspase-3 or C(3) Lysis Buffer (0.8× FastBreak (Promega Cat. No. V857A), 10 mM DTT, 0.1% CHAPS, 0.8 mg/mL Lysozyme, 3 U/μL RQ1 DNase (Promega Cat. No. M610A)) and incubated for 60 min at room temperature. The E. coli lysate containing caspase-3 was prepared from KRX cells overexpressing recombinant caspase-3. Briefly, KRX cells were transformed with pTS1k:caspase-3(T/S). A starter culture (50 mL, LB Broth) was inoculated from a single colony and grown for 17-22 hrs at 37° C. with shaking (275 rpm). The starter culture was diluted (1:50) into fresh media and growth was continued for an additional 3 hrs. The incubation temperature was then lowered to 25° C. and, after 15 min, expression of caspase-3 was initiated by addition of rhamnose (0.2% final concentration). After 2 hr, cells were collected by centrifugation, re-suspended in 50 mL C(3) Lysis Buffer and incubated at ambient temperature (i.e. 22-24° C.) for 10 min. The lysate was clarified by centrifugation (20,000×g for 20 min at 4° C.) and used as the Caspase-3 source.
Cleavage of CBS-HT by Caspase-3 was detected in two different ways: by SDS-PAGE analysis and luminescence detection. […] After electrophoresis, CA-TAM labeled species were detected by fluorescent imaging (ex:532, Em:580; FIG. 17). For detection via luminescence, 40 μL of the cleavage reaction samples were added to 60 μL buffer (50 mM HEPES (pH 7.5) and 100 μL Bright-Glo assay reagent. Luminescence was detected as previously described (Table 7).

caspase-3 [3] = experiment: CBS-HT (cell-free expressed) immobilized to HaloLink resin, caspase-3 cleavage reaction; assay type: biochemical
Procedure: For immobilization to a resin (FIG. 18A), HaloLink resin (25% slurry, Promega Cat. No. G1912) was first equilibrated with HTPB Buffer (50 mM HEPES (pH 7.5), 150 mM NaCl, 1 mM DTT and 0.5 mM EDTA). Resin from one volume of slurry was collected by centrifugation (5 min at 1000×g), and the storage buffer was removed. The resin pellet was re-suspended in 2 volumes of HTPB and mixed. This process was repeated for a total of three HTPB washes. 100 μL of the CBS-HT fusion from Example XI (cell free expression reaction) was mixed with 25 μL washed resin (50% slurry in HTPB) and incubated overnight with mixing at 4° C. Incubation was continued at ambient temperature for 2 hrs. After incubation, the resin was washed to remove un-bound CBS. The resin was split into two 50 μl aliquots, and each aliquot was washed 3 times with HTPB. The final resin pellets were re-suspended in 50 μL HTPB.
For the CBS caspase-3 cleavage reaction, 20 μl of the washed resin was mixed with 20 μL of either E. coli lysate containing caspase-3 or C(3) Lysis Buffer (as in Example XI) and incubated for 30 min at ambient temperature. 60 μl HEPES pH 7.5 was added to the samples, followed by the addition of 100 μl Bright-Glo Assay Reagent. Luminescence was detected as previously described (Table 8 and FIG. 19).

B1: TL-CP233-Caspase 8: TL Ppe fragments 233-543 and 4-232 with caspase-8 site linker … (SEQ ID NOs:57 and 58) (protein)
chain: MTSAILTVIPFHHGFGMMTTLGYFTCGFRVVLMHTFEEKLFLQSLQDYKVESTLLVPTLMAFLAKSALVEKYDLSHLKEIASGGAPLSKEIGEMVKKRFKLNFVRQGYGLTETTSAVLITPKGDAKPGSTGKIVPLHAVKVVDPTTGKILGPNEPGELYFKGPMIMKGYYNNEEATKAIIDNDGWLRSGDIAYYDNDGHFYIVDRLKSLIKYKGYQVAPAEIEGILLQHPYIVDAGVTGIPDEAAGELPAAGVVVQTGKYLNEQIVQDYVASQVSTAKWLRGGVKFLDEIPKGSTGKIDRKVLRQMLEKHTNGSSLETDGSSGDKNILYGPEPFYPLEDGTAGEQMFDALSRYAAIPGCIALTNAHTKENVLYEEFLKLSCRLAESFKKYGLKQNDTIAVCSENSLQFFLPVIASLYLGIIVAPVNDKYIERELIHSLGIVKPRIVFCSKNTFQKVLNVKSKLKSIETIIILDLNEDLGGYQCLNNFISQNSDSNLDVKKFKPYSFNRDDQVASIMFSSGTTGLPKGVMLTHKNIVARFSIAKDPTFGNAINPV
For B1, the “detection of Caspase 8 activation by TRAIL” value (Caspase-8) was “can detect Caspase 8 activation by TRAIL”.

B2: CBS-HT: CBS variant 1A5 fused to HaloTag, expressed in wheat germ extract (SEQ ID NOs:71 and 72) (protein)
chain: MAEIGTGFPFDPHYVEVLGERMHYVDVGPRDGTPVLFLHGNPTSSYVWRNIIPHVAPTHRCIAPDLIGMGKSDKPDLGYFFDDHVRFMDAFIEALGLEEVVLVIHDWGSALGFHWAKRNPERVKGIAFMEFIRPIPTWDEWPEFARETFQAFRTTDVGRKLIIDQNVFIEGTLPMGVVRPLTEVEMDHYREPFLNPVDREPLWRFPNELPIAGEPANIVALVEEYMDWLHQSPVPKLLFWGTPGVLIPPAEAARLAKSLPNCKAVDIGPGLNLLQEDNPDLIGSEIARWLSTLEISGEPTTEDLYFQSDNAIAMPGSTGKIVPLHAVKVVDPTTGKILGPNEPGELYFKGPMIMKGYYNNEEATKAIIDNDGWLRSGDIAYYDNDGHFYIVDRLKSLIKYKGYQVAPAEIEGILLQHPYIVDAGVTGIPDEAAGELPAAGVVVQTGKYLNEQIVQDYVASQVSIAKWLRGGVKFLDEIPKGSTGKIDRKVLRQMLEKHTNGSDEVDGSLKNILYGPEPFYPLEDGTAGEQMFDALSRYAAIPGCIALTNAHTKENVLYEEFLKLSCRLAESFKKYGLKQNDTIAVCSENSLQFFLPVIASLYLGIIVAPVNDKYIERELIHSLGIVKPRIVFCSKNTFQKVLNVKSKLKSIETIIILDLNEDLGGYQCLNNFISQNSDSNLDVKKFKPYSFNRDDQVASIMFSSGTTGLPKGVMLTHKNIVARFSIAKDPTFGNAINPTSAILTVIPFHHGFGMMTTLGYFTCGFRVVLMHTFEEKLFLQSLQDYKVESTLLVPTLMAFLAKSALVEKYDLSHLKEIASGGAPLSKEIGEMVKKRFKLNFVRQGYGLTETTSAVLITPKGV
With B2 the BASAL luminescence (caspase-3 [1]; MIN. 0) was 66, the INDUCED luminescence (caspase-3 [1]; MIN. 0) was 1,226 and the RESPONSE (caspase-3 [1]; MIN. 0) was 19. The BASAL luminescence (caspase-3 [1]; MIN. 1) was 16, the INDUCED luminescence (caspase-3 [1]; MIN. 1) was 1,636 and the RESPONSE (caspase-3 [1]; MIN. 1) was 102. The BASAL luminescence (caspase-3 [1]; MIN. 2) was 106, the INDUCED luminescence (caspase-3 [1]; MIN. 2) was 2,267 and the RESPONSE (caspase-3 [1]; MIN. 2) was 21. The BASAL luminescence (caspase-3 [1]; MIN. 3) was 66, the INDUCED luminescence (caspase-3 [1]; MIN. 3) was 2,147 and the RESPONSE (caspase-3 [1]; MIN. 3) was 33. For the same molecule, the BASAL luminescence (caspase-3 [1]; MIN. 4) was 126, the INDUCED luminescence (caspase-3 [1]; MIN. 4) was 2,297 and the RESPONSE (caspase-3 [1]; MIN. 4) was 18. For the same molecule, the BASAL luminescence (caspase-3 [1]; MIN. 5) was 126, the INDUCED luminescence (caspase-3 [1]; MIN. 5) was 2,857 and the RESPONSE (caspase-3 [1]; MIN. 5) was 23. The BASAL luminescence (caspase-3 [1]; MIN. 6) was 76, the INDUCED luminescence (caspase-3 [1]; MIN. 6) was 3,107 and the RESPONSE (caspase-3 [1]; MIN. 6) was 41. For the same molecule, the BASAL luminescence (caspase-3 [1]; MIN. 7) was 56, the INDUCED luminescence (caspase-3 [1]; MIN. 7) was 3,377 and the RESPONSE (caspase-3 [1]; MIN. 7) was 60. The BASAL luminescence (caspase-3 [1]; MIN. 8) was 136, the INDUCED luminescence (caspase-3 [1]; MIN. 8) was 3,037 and the RESPONSE (caspase-3 [1]; MIN. 8) was 22. The BASAL luminescence (caspase-3 [1]; MIN. 9) was 116, the INDUCED luminescence (caspase-3 [1]; MIN. 9) was 3,667 and the RESPONSE (caspase-3 [1]; MIN. 9) was 32. The RESPONSE (caspase-3 [2]) was 441, the BASAL luminescence (caspase-3 [2]; C(3) Lysis Buffer) was 10,494 and the INDUCED luminescence (caspase-3 [2]; E. coli lysate containing caspase-3) was 4,626,173. For the same molecule, the BASAL luminescence (caspase-3 [3]; sample AS) was 29,553, the INDUCED luminescence (caspase-3 [3]; sample AS) was 5,162,108 and the RESPONSE (caspase-3 [3]; sample AS) was 175. For the same molecule, the BASAL luminescence (caspase-3 [3]; sample FT) was 3,170, the INDUCED luminescence (caspase-3 [3]; sample FT) was 232,117 and the RESPONSE (caspase-3 [3]; sample FT) was 73. For the same molecule, the BASAL luminescence (caspase-3 [3]; sample RESIN) was 11,219, the INDUCED luminescence (caspase-3 [3]; sample RESIN) was 1,635,259 and the RESPONSE (caspase-3 [3]; sample RESIN) was 146.
